Measurements taken from ChEMBL document CHEMBL4007386, “Design, synthesis of allosteric peptide activator for human SIRT1 and its biological evaluation in cellular model of Alzheimer's disease” (Eur J Med Chem, 2017).

Experiments:
Conditions in all cases: Homo sapiens
[1] = compound: N=C(N)NCCC[C@H](NC(=O)[C@H](Cc1c[nH]c2ccccc12)NC(=O)[C@@H](N)CS)C(=O)O; assay: Allosteric activation of SIRT1 (unknown origin) expressed in bacterial expression system assessed as Vmax for substrate at 40 uM using Fluorophore labeled-Arg-His-Lys-Lys (Ac) as substrate incubated for 30 mins in presence of NAD+ by fluorimetric method (reference value: 1666.67 uM)
[2] = compound: N=C(N)NCCC[C@H](NC(=O)[C@H](Cc1c[nH]c2ccccc12)NC(=O)[C@@H](N)CS)C(=O)O; assay: Allosteric activation of SIRT1 (unknown origin) expressed in bacterial expression system assessed as Vmax for substrate at 80 uM using Fluorophore labeled-Arg-His-Lys-Lys (Ac) as substrate incubated for 30 mins in presence of NAD+ by fluorimetric method (reference value: 1666.67 uM)
[3] = compound: N=C(N)NCCC[C@H](NC(=O)[C@H](Cc1c[nH]c2ccccc12)NC(=O)[C@@H](N)CS)C(=O)O; assay: Allosteric activation of SIRT1 (unknown origin) expressed in bacterial expression system assessed as Vmax for substrate at 120 uM using Fluorophore labeled-Arg-His-Lys-Lys (Ac) as substrate incubated for 30 mins in presence of NAD+ by fluorimetric method (reference value: 1666.67 uM)
[4] = compound: N=C(N)NCCC[C@H](NC(=O)[C@H](Cc1c[nH]c2ccccc12)NC(=O)[C@@H](N)CS)C(=O)O; assay: Allosteric activation of SIRT1 (unknown origin) expressed in bacterial expression system assessed as Vmax for substrate at 160 uM using Fluorophore labeled-Arg-His-Lys-Lys (Ac) as substrate incubated for 30 mins in presence of NAD+ by fluorimetric method (reference value: 1666.67 uM)
[5] = compound: N=C(N)NCCC[C@H](NC(=O)[C@H](Cc1c[nH]c2ccccc12)NC(=O)[C@@H](N)CS)C(=O)O; assay: Allosteric activation of SIRT1 (unknown origin) expressed in bacterial expression system assessed as apparent Km for substrate at 40 uM using Fluorophore labeled-Arg-His-Lys-Lys (Ac) as substrate incubated for 30 mins in presence of NAD+ by fluorimetric method (reference value: 507 uM)
[6] = compound: N=C(N)NCCC[C@H](NC(=O)[C@H](Cc1c[nH]c2ccccc12)NC(=O)[C@@H](N)CS)C(=O)O; assay: Allosteric activation of SIRT1 (unknown origin) expressed in bacterial expression system assessed as apparent Km for substrate at 80 uM using Fluorophore labeled-Arg-His-Lys-Lys (Ac) as substrate incubated for 30 mins in presence of NAD+ by fluorimetric method (reference value: 507 uM)
[7] = compound: N=C(N)NCCC[C@H](NC(=O)[C@H](Cc1c[nH]c2ccccc12)NC(=O)[C@@H](N)CS)C(=O)O; assay: Allosteric activation of SIRT1 (unknown origin) expressed in bacterial expression system assessed as apparent Km for substrate at 120 uM using Fluorophore labeled-Arg-His-Lys-Lys (Ac) as substrate incubated for 30 mins in presence of NAD+ by fluorimetric method (reference value: 507 uM)
[8] = compound: N=C(N)NCCC[C@H](NC(=O)[C@H](Cc1c[nH]c2ccccc12)NC(=O)[C@@H](N)CS)C(=O)O; assay: Allosteric activation of SIRT1 (unknown origin) expressed in bacterial expression system assessed as apparent Km for substrate at 160 uM using Fluorophore labeled-Arg-His-Lys-Lys (Ac) as substrate incubated for 30 mins in presence of NAD+ by fluorimetric method (reference value: 507 uM)

B1: NAD-dependent protein deacetylase sirtuin-1 (Homo sapiens), Q96EB6 (protein)
chain: MADEAALALQPGGSPSAAGADREAASSPAGEPLRKRPRRDGPGLERSPGEPGGAAPEREVPAAARGCPGAAAAALWREAEAEAAAAGGEQEAQATAAAGEGDNGPGLQGPSREPPLADNLYDEDDDDEGEEEEEAAAAAIGYRDNLLFGDEIITNGFHSCESDEEDRASHASSSDWTPRPRIGPYTFVQQHLMIGTDPRTILKDLLPETIPPPELDDMTLWQIVINILSEPPKRKKRKDINTIEDAVKLLQECKKIIVLTGAGVSVSCGIPDFRSRDGIYARLAVDFPDLPDPQAMFDIEYFRKDPRPFFKFAKEIYPGQFQPSLCHKFIALSDKEGKLLRNYTQNIDTLEQVAGIQRIIQCHGSFATASCLICKYKVDCEAVRGDIFNQVVPRCPRCPADEPLAIMKPEIVFFGENLPEQFHRAMKYDKDEVDLLIVIGSSLKVRPVALIPSSIPHEVPQILINREPLPHLHFDVELLGDCDVIINELCHRLGGEYAKLCCNPVKLSEITEKPPRTQKELAYLSELPPTPLHVSEDSSSPERTSPPDSSVIVTLLDQAAKSNDDLDVSESKGCMEEKPQEVQTSRNVESIAEQMENPDLKNVGSSTGEKNERTSVAGTVRKCWPNRVAKEQISRRLDGNQYLFLPPNRYIFHGAEVYSDSEDDVLSSSSCGSNSDSGTCQSPSLEEPMEDESEIEEFYNGLEDEPDVPERAGGAGFGTDGDDQEAINEAISVKQEVTDMNYPSNKS
[1]
  Vmax: 1430 µM
[2]
  Vmax: 1250 µM
[3]
  Vmax: 1110 µM
[4]
  Vmax: 1110 µM
[5]
  Km: 236 µM
[6]
  Km: 168 µM
[7]
  Km: 72 µM
[8]
  Km: 75 µM
